Experimental data from the DeepSol protein solubility set.

assay: soluble on expression in E. coli; label from the status in PepcDB or PDB records

Sequence | soluble on expression in E. coli
MFGNHGQLFRLSVFRSADTAQQFLRQCYQQLQRDDAVQRSYANCYPFLYYLEHGQNFYAAAQQAPLSIKPVLLFYGMVQLLKACLLTVDPDYPESTSVLAHGVSARKRKKQGYEFLDDEVKIQKNGLFAHFSEKMFHVKQEAGEKFRMGTLLQRIGELHETFFLLSGRKKPLSLPVVHTASPPMLAIPKVILDHYHMSLSRFVQYLCEEGQGKRLSFAKEEGEFLYFHIESPLSPAGEGPFLFHLDGTLRIPVKKEKTFSLPEIHAHYLLLYNLSMISRYETEWWSELLHSYPSKAYTFILEFLSVSAEKVPLLLHEYLMRKFLG | not soluble
MSDLVTKFESLIISKYPVSFTKEQSAQAAQWESVLKSGQIQPHLDQLNLVLRDNTFIVSTLYPTSTDVHVFEVALPLIKDLVASSKDVKSTYTTYRHILRWIDYMQNLLEVSSTDKLEINHDLDLPHEVIEKKKKAPAGGAADAAAKADEDVSKKAKKQDHPRGKPDEETLKKLREEAKAKKAAKKAANAKQQQEQQNKAPEKPKPSAIDFRVGFIQKAIKHPDADSLYVSTIDVGDEEGPRTVCSGLVKHFPLDAMQERYVVVVCNLKPVNMRGIKSTAMVLCGSNDDKVEFVEPPKDSKAGDKVFFEGFGDEAPMKQLNPKKKIWEHLQPHFTTNDGLEVIFKDEEEKDHPVRKLTNAKGESFKVASIANAQVR | not soluble
MLHLPTIETSSAGRRRRKANSEVDSGAEEPTATSSSDDKSDYRLDLKKRLTTFLTSNSQMASSDSGVSGVESTVEHDLSELKASDSPMSHDGADSPRPELDRTDIVVCGECHTSFSLSCFSNFIEHKVSNCGGKLTPSDDCEVTPRNFDRSRRRTFNPAALIRCGRSTSANALLPNYNMDVTTDTNDLGSSSKSLTCCNCKERFGDVWTLLKHSYDIHGLRVCQEAIPESDVSVTSTSSPTSNESMHMSSRYNHNDTSSKIMHQTIKSESTMMNSFCSERLKEIVTRAGEQDQKPLMALRRLMPSEETEEEQVSAFTSTSLLNSRASQPQLPTVSSSAGFQTSGSMPNVWMQPSMLAAMQEYYASIQQMPYPMTNSTAVALLNISNNLQQQQQQQQQLQQQQQNLIAAQPQVATPQPPAPTPLFQSLNRLSTADESSYTPRPASVAIRRRASPEEELTPPRKSMKIEEEDQLIVVDDGELAEPAARKPNNIKKERCNFCNKVFTNRSNLIVHLRSHTGEKPYKCQLCPYACAQSSKLTRHMRTHGQQGKETYHCYICRMPFSVHSTLEKHMRKCVVSTQGRREGGSPPERSIRPTPSALAEATSLLALSAPSISVPPQPQASTVGQNQSQSHQIVLNWLHALNASNSTPTATSKEDMIEADEDMEETEASDLQSHQPLTSESNQIATVAN | not soluble
MGSDKIHHHHHHMTTKDISRPVCILGLGLIGGSLLRDLHAANHSVFGYNRSRSGAKSAVDEGFDVSADLEATLQRAAAEDALIVLAVPMTAIDSLLDAVHTHAPNNGFTDVVSVKTAVYDAVKARNMQHRYVGSHPMAGTANSGWSASMDGLFKRAVWVVTFDQLFDGTDINSTWISIWKDVVQMALAVGAEVVPSRVGPHDAAAARVSHLTHILAETLAIVGDNGGALSLSLAAGSYRDSTRVAGTDPGLVRAMCESNAGPLVKALDEALAILHEAREGLTAEQPNIEQLADNGYRSRIRYEARSGQRRAKESVSPTITSSRPVLRLHPGTPNWEKQLIHAETLGARIEVF | not soluble
PKGSIIVSTRAPVGYVAIVDEDTTFNQGCKGLIPKSSEINTEFYCYYLLLIKRKLEQLSGGSTFKELPKKSLEELLIPLLPLPEQQKIAEILSTV | soluble
MDRRQRFEKYDWLISKTQSILKNYECPESCNASCCRHHIIDFRRKEYEKILKNVDKESANILKSNAVKSELEGCYKAIVGQCPLLTNSKCRIYNNRPEACRNFPFVIFPDPEAGFGLTLLLCPISVNIIQDYAQWYKSVNLTMYNQLTAVYEQYKNIGENNDFCIQMKEQNLDSFIEFLEKKLEHHHHHH | not soluble
MNYTETVAYIHSFPRLAKTGDHRRILTLLHALGNPQQQGRYIHVTGTNGKSTAANAIAHVLEASGLTVGLYTSPFIMRFNERIMIDHEPIPDAALVNAVAFVRAALERLQQQQADFNVTEFEFITALGYWYFRQRQVDVAVIEVGIGGDTDSTNVITPVVSVLTSVALDHQKLLGHTITAIAKHKAGIIKRGIPVVTGNLVPDAAAVVAAKVATTGSQWLRFDRDFSVPKAKLHGWGQRFTYEDQDGRISDLEVPLVGDYQQRNMAIAIQTAKVYAKQTEWPLTPQNIRQGLAASHWPARLEKISDTPLIVIDGAHNPDGINGLITALKQLFSQPITVIAGILADKDYAAMADRLTAAFSTVYLVPVPGTPRALPEAGYEALHEGRLKDSWQEALAASLNDVPDQPIVITGSLYLASAVRQTLLGGKS | soluble
MSLSQLAYEKILNLIINGKYKPGNLLKEDELANTLNISRTPVREALARLERDGIIIKSGKSYSVIPLSAEDIIQIYEIRIPLEAEASKLASIRGTEEELKKMLDIIEEIKRVKEDAEPLTLAELNGKLHRTISEASHNKFLADILENIRLKLKIVRVTLFTSFQRREEELREHSEIVTAIIERNPDKAYQLMKEHELNVLEYVKKNILPILFR | soluble
MGSDKIHHHHHHMANLTFYPIGTAGEKWGETEKAAWLASTQIKRSYQDDVVTPLKAMEAKLSALGLGIVQYGALSINAERYPLFAVKSQQFDPQKPTVLVTGGVHGYETSGVHGALAFLTNEAANYVQQVNLVVAVCVSPWGYETINRWNPKAIDPNRSFYANSPAEESAALMALVASVTSVEQGFDVHVDLHETTDSDELEFRPALCARDGIEYDKGTIPDGFYAVGDTEHSMDAFQKAIIDGVSKVTHIAPADEKGEIIGSTVVQHGVINYPLKSLGLCSSVTGCIYNTTTEVYPDSPTATPAECNLAQVAAITSAIDYVLAQR | not soluble
MKPESHCVYLELSAEREHKFYEVTVEGAELTIRYGRIGTEGQTQRKSFADSAGAQAEAEKKLVEKRKKGYGDAVRGQTEKKAVEQPRLKLPRKFEPYRERIEATLRPVLLLEVLEEEPGPLGSKVGGVPYRVQGEAWPTDTEGRPLTFLAQLNFADLPPLEGYPENGILQFFIGRDDLYGCDFMRPEEGNPASFEVRWSPEPQMDLSQLDVETPDFDDDGFSPLETLRGFGLRGQQVEQPMSWCDCHFEQAIGLDLCDNSEGPEGRALGEWRQEKYDELATYGHQVGGYPSFTQEDPRTADDPRILLFQLDSEAGKITWGDVGIANFFIDPDDLARWDFSRVAYNWDCTLEHHHHHH | soluble
MGHHHHHHSHALQVDISDALSERDKVKFTVHTKSSLPNFKQNEFSVVRQHEEFIWLHDSFVENEDYAGYIIPPAPPRPDFDASREKLQKLGEGEGSMTKEEFTKMKQELEAEYLAIFKKTVAMHEVFLCRVAAHPILRRDLNFHVFLEYNQDLSVRGKNKKEKLEDFFKNMVKSADGVIVSGVKDVDDFFEHERTFLLEYHNRVKDASAKSDRMTRSHKSAADDYNRIGSSLYALGT | not soluble
MQMMEQFYPKVSIVIPVYNGSDYMREAIDSALGQTYGNIEVIVVNDGSSDGGLTHEIALSYGGNIRYFAKENGGVASALNFAIRMMDGEYFSWLSHDDIYYPNKIETQIGYLAEHDRNAILYSDFELIDCLSKVIKPVNAGEIPPEQFLYNLITIGHLNGCTLLVPKRCFEETGFFDESLRSTQDYALWFTFAQKYRFEQIRKVLVKYRTHSNQGSYVIPTHSQEVNDLHIWFLEEASERGLLPIPDEGASRFFLEVAGIYKKRGIYRAADYSCSMALRHMRDEGGLALLRELPRVAYLKYYFRKKQFKSYLRELRRSTVRRSLLEHHHHHH | not soluble
MGSDKIHHHHHHMGSKKLTVGSDSHRLSKSSFSSNKSSHSATKDQPIDTDDIDEDDESGHNIILNIISQLRPGCDLTRITLPTFILEKKSMLERVTNQLQFPEFLLQAHSEKDPLKRFLYVMKWYLAGWHIAPKAVKKPLNPVLGEYFTAYWDLPNKQQAYYISEQTSHHPPECAYFYMIPESSIRVDGVVIPKSRFLGNSSAAMMDGSTVLQFLDIKDGNGKPEKYVLTQPNVYVRGILFGKMRIELGDHMIIKSPNFQADIEFKTKGYVFGTYDAIEGTVKDYDGNAYYEISGKWNDVMYLKDLKQPRSSPKVFLDTHKESPLRPKVRPLSEQGEYESRKLWKKVTDALAVRNHPVATEEKFQIEDHQRQLAKKRIEDGVEFHPKLFRRSKPGEDLDYCIYKNIPVDEDPEKQIRSILQIAPILPGQQFTDKFFIPAFEKIKSQKKMIENEKQNPAKQ | not soluble
MTDDRVEQVLEAARRLVAAFARNDAEAYFAAFSEDASFIFHNWPQPLRSRAAYRKLWERWRREDGFEVLACESSNTCVSLQGDLAIFSHDVATRLRLQGTESLNRERETILFRLEQQEGRWLACHEHLSAMPEYLPSTS | not soluble
MAHHHHHHSAARRRASGENLQQTRPIAAANLQWESYAEALEHSKQDHKPIGLFFTGSDWCMWCIKMQDQILQSSEFKHFAGVHLHMVEVDFPQKNHQPEEQRQKNQELKAQYKVTGFPELVFIDAEGKQLARMGFEPGGGAAYVSKVKSALKLR | soluble
MGSDKIHHHHHHMAFWQSKTLTEMTSQEWESLCDGCGKCCLNKLIDDETEELYYTNAACLLLDHQTTSCQHYSDRFRYVPQCTVITAQNVHELTWLPDSCAYRRLAAGRALPSWHPLLTGSKDAMHLAGMSIQGKVVDERRVKDIEDHIVLWPLKDLD | not soluble
MQITTTFRHMEQSEALKSYAAEKLERVKKYIDEPITAQVFLTVEKIRHIAEVTLTAKGITIKAAEETNDMYAALDAVIDKIERQLRRYKERLKEHKPSADDRALEIQKSVVTAESIEQRTEPVVIRSKTISIKPMSVEEAVMQMDLLHKDFLVFTDASTEAINVVYRRKDGNYGLIEPQRKLEHHHHHH | soluble
MSAIEVKNLVKKFHGQTVLHGIDLEVKPGEVVAIIGPSGSGKTTLLRSINLLEQPEAGTITVGDITIDTARSLSQQKSLIRQLRQHVGFVFQNFNLFPHRTVLENIIEGPVIVKGEPKEEATARARELLAKVGLAGKETSYPRRLSGGQQQRVAIARALAMRPEVILFDEPTSALDPELVGEVLNTIRQLAQEKRTMVIVTHEMSFARDVADRAIFMDQGRIVEQGAAKALFADPEQPRTRQFLEKFLLQ | soluble
MSLGFASQQEAVNDFWGWPSDESDKEAVEASIRKYANAIADTINKYGYDGFDIDYEPNYGNKGNIVDDDDRMFIFVDELGKHFGPKSGTGKLLIIDGEPQSIKNRPDVGPYFDYFIIQAYKPGNDNNLDKRLIDGGVAGPGLVQTYGSVMSEEQITKMTIMTENFEAVDAAMDGGYPYTDRYGNSMKSLEGMARWQPKNGFRKGGVGSYHMEAEYPTNPEYKNLRKAIQIMNPSTKPLIKYEGHHHHHH | soluble
MKFKTNKLSLNLVLASSLLAASIPAFAVTGDTDQPIHIESDQQSLDMQGNVVTFTGNVIVTQGTIKINADKVVVTRPGGEQGKEVIDGYGKPATFYQMQDNGKPVEGHASQMHYELAKDFVVLTGNAYLQQVDSNIKGDKITYLVKEQKMQAFSDKGKRVTTVLVPSQLQDKNNKGQTPAQKKGN | soluble
MDELFEEHLEIAKALFAQRLPYWCDVFLRPADQAFNAYLNARGQASTYLVLEGFDPVYVPRGCDLDAVRATARARARLREAGLGEDALPVLL | not soluble
MEAPLYPDLPPDLCAPRGGQPAFWVGPRHLAGDDGRLYDVVADALAGLGWTSLTIVRGRHEPDEEPEDRQVLRSTVLHISPDALRWAQWCAADEPFHLGGLPIAWQISVRAEVSSPLAQWSAYFTRDVPGEAVVDFLVALDASNQPAVSLAGAELVLDAVAAHGWFRDIDQPEAVATDPAFTSHISLGEVPPLIQDGDLRVLSAEDDETGPDGWQAWAEPVLGAPLLWVASFAASVPHDLVAAFAASLSSTAPVLRRVLPEATHERLLRAPAILEHHHHHH | not soluble
